Laboratory results from US9731031B2, “Conjugate comprising oxyntomodulin and an immunoglobulin fragment, and use thereof” (Hanmi Science Co., Ltd., dated 2017).
Where no end group is shown, it is not given here. [ ]: non-standard residue; d: D form. The star is where a group is joined. Acetyl(2-(4-imidazolyl)) = O=C(Cc1c[nH]cn1)*; Aib = CC(C)(N)C(=O)O

Tests used:
human glucagon receptor = human glucagon receptor (human, UniProt P47871); test: cell-based or functional assay
human GLP-1 receptor = human GLP-1 receptor (human, UniProt P43220); test: cell-based or functional assay

Row | Binder | EC50 (nM), cAMP (human glucagon receptor) [nM] | EC50 (nM), cAMP (human GLP-1 receptor) [nM]
1 | HSQGTFTSDYSRYLDEEAVRLFIEWIRNTKRNRNNIA (not fully specified (residue 1, N-terminus); also: N-terminal CA (4-imidazoacetyl), whether it replaces His1 not given here) [oxyntomodulin derivative of SEQ ID NO. 17] | > 1000 | 
2 | [Acetyl(2-(4-imidazolyl))][Aib]QGTFTSDYSKYLDEKRAKEFVQWLMNTC (also: ring between residues marked, places not visible) [oxyntomodulin derivative of SEQ ID NO. 32] | 17.3 | 14.2
3 | HGEGTFTSDLSRQMEEEAVRLFIEWAAHSQGTFTSDYSRYLDK (not fully specified (residue 1, N-terminus); also: N-terminal CA (4-imidazoacetyl), whether it replaces His1 not given here) [oxyntomodulin derivative of SEQ ID NO. 11] | > 1000 | > 1000
4 | HGEGTFTSDLSRQMEEEAVRLFIEWAAHSQGTFTSDYSKYLD (not fully specified (residue 1, N-terminus); also: N-terminal CA (4-imidazoacetyl), whether it replaces His1 not given here) [oxyntomodulin derivative of SEQ ID NO. 6] | > 1000 | 
5 | H[Aib]QGTFTSDYSKYLDEKRAKEFVCWLMNT (also: ring between residues marked, places not visible) [oxyntomodulin derivative of SEQ ID NO. 23] | 5.8 | 2.46
6 | H[Aib]QGTFTSDYSKYLDEKRAKEFVQWLMNTC (also: ring between residues marked, places not visible) [oxyntomodulin derivative of SEQ ID NO. 24] |  | 1.43
7 | [Acetyl(2-(4-imidazolyl))]SQGTFTSDLSRQLEEEAVRLFIEWLMNK (also: N-terminal CA (4-imidazoacetyl), whether it replaces His1 not given here) [oxyntomodulin derivative of SEQ ID NO. 8] | > 1000 | 
8 | H[Aib]QGTFTSDYSKYLDEKRAKEFVQWLMNTC (also: ring between residues marked, places not visible) [oxyntomodulin derivative of SEQ ID NO. 25] |  | 1.9
9 | HSQGTFTSDYSRYLDEEAVELFIEWLMNTK [oxyntomodulin derivative of SEQ ID NO. 13] | > 1000 | > 1000
10 | [Acetyl(2-(4-imidazolyl))]SQGTFTSDYSKYLDERRAQDFVAWLKNTGPSSGAPPPS (also: N-terminal CA (4-imidazoacetyl), whether it replaces His1 not given here) [oxyntomodulin derivative of SEQ ID NO. 3] |  | > 1000
11 | H[Aib]QGTFTSDYAKYLDEKRAKEFVQWLMNTC (also: ring marking not visible) [oxyntomodulin derivative of SEQ ID NO. 33] | 80.2 | 2.2
12 | [Acetyl(2-(4-imidazolyl))]SQGTFTSDYSRYLDEEAVRLFIEWIRNGGPSSGAPPPSK (also: N-terminal CA (4-imidazoacetyl), whether it replaces His1 not given here) [oxyntomodulin derivative of SEQ ID NO. 18] | > 1000 | 
13 | Y[Aib]QGTFTSDYSKYLDEKRAKEFVQWLMNTC (also: ring marking not visible) [oxyntomodulin derivative of SEQ ID NO. 34] | 1 | 12.5
14 | H[Aib]QGTFTSDYSKYLDEKRAKEFVQWLMNT (also: ring between residues marked, places not visible) [oxyntomodulin derivative of SEQ ID NO. 28] | 0.3 | 
